Molecular target: OB-R (leptin receptor) expressed by rabbit endometrial cells (rEEC and rESC) (rabbit)
Test: competition with 125I-human leptin for OB-R in rabbit endometrial cell lysates (rEEC and rESC), PEG precipitation

Ki: 0.06 nM
B1: LPA-2 (leptin peptide antagonist 2; residues 70-95 of helix III of the human leptin molecule) (peptide)
peptide: SRNVIQISNDLENLRDLLHVLAFSKS

— patent US20050250690A1
